# Test: soluble on expression in E. coli; label from the status in PepcDB or PDB records
row,Sequence,soluble on expression in E. coli
1,MGKLAFLFPGQGSQAVGMGKQLAENNKEVANVFAKADEVLQDSLSEVIFEGSQEKLTLTTNAQPALLTTSFAILTALKEYDITPDFVAGHSLGEYSALVAAGALTFEDAVYAVRKRGEYMEEAVPGGEGAMAAILGADPHMLKRVTEEVTGEGYAVQIANMNSTKQIVISGTKQGVEIASQRAKENGAKRAIPLKVSGPFHSALMKPAAEKFQSVLNEITIQDTNIPVIANVTADVITSGAHIQEKLIEQLYSPVLWYPSIEYMVNQGVDTFIEIGPGKVLAGLMKSIDSSVKAYAIYDEETLKDTISNLRGEN,not soluble
2,MGKVYKKVELVGTSEEGLEAAIQAALARARKTLRHLDFFEVKEIRGTIGEAGVKEYQVVLEVGFRLEET,soluble
3,MGLDISDETLKIQKKKENENRVIILMIPGNPGNEGFYAHFGREVLQNLIKKDEDEQKNLKNQYLFYTVSSLNHVRMPDHLKDDGEHRNHDRISLEEQVNHKLSFVKEHLPRGKQLYILGHSIGSYMMLRIIPEVIKEGFHVEKAVGLFPTIVHMANSPNGKRLHGTLATLNHHDWLTKTICWWVDYLPNSIKKFLVGLNLRHPNTPPEIVDAAVELVHMDVFRNIVHMSNDELDIVLDLDERLLEKQDVVHFYYGLKDGWCPVQHGYSMRDRLGEEQVTLDEDNCEHAFVISEGDIMARNVIKYFD,not soluble
4,MGLDTIEKGADGLDSIKSLAFVYGETDNPYTKTSELFTWLFGHEIADTVLLLLNDHIYILGSNRKVEFFGSVTGDNQSSGKVPTVSTLLRDKTDKDAGNFEKLIDHIKSAGGDVGNFVKEKFSSEFVSSWNKALEEGGVNKNDVTLAFTHLFAVKDDKEMDLIRKSAQATTASWTAARARYVEISDNEKVLIVLKIVELGVLLRVRHSVLSNQFAAFMKDSKVQQALAKYEADTCYDPIKMLIFVDRKYDSVVVPIFGIPVPFHISMIKNCSQSVEGDLTYLRINFATPGSQVGKDSGQFPHPLAHYMKEFTFRASNIKDHHSDSTAPSRNLSTAFRFIKEMQKRFKSEEAEQREKEGAVKQDKLILSQNKLNPKLNLLICPNIIQKLITGSLEAHTNGFRFLFNSFSRYTSLRAFFEEGGWSFLNAESDNEEAMDDSDDSDAYDPEEEDASAGSGSESDEDESEGEETESDDDDEGSLDSDEFVQPIFAF,not soluble
5,MGLIDVLKSFKSPSGREIRILLLGLDNAGKTTILKQLSSEDVQHVTPTKGFNVKTVAAMGDIRLNVWDIGGQRSIRPYWSNYYENIDTLIFVIDSNDKKRFDEMNIELGELLDEEKLRKVPVLIFANKQDLVTAASSEEITRKLNLDLLRDRTWHIQACSALKNEGINDGITWVASNLKPASKK,not soluble
6,MGLIKENRMDSLKVSDYMTLQAVTFSPDMSLSAALEKVVRSDNMGGPVIDAQRHVIGFLSEQDLLDKLVHASYHCQDAHLVSDCMHKEVLSVAPETSIIELAAMMKVGKPKMYPVVSDGKLVGVITRRDVLRALSKTLTNCFQHPV,not soluble
7,MGLKPCDYPDIKHGGLYHENMRRPYFPVAVGKYYSYYCDEHFETPSGSYWDHIHCTQDGWSPAVPCLRKCYFPYLENGYNQNHGRKFVQGKSIDVACHPGYALPKAQTTVTCMENGWSPTPRCIRVKTCSKSSIDIENGFISESQYTYALKEKAKYQCKLGYVTADGETSGSITCGKDGWSAQPTCI,soluble
8,MGLLTNDIIEESAWEALEKSILYYKGRPVGTVAAFDASVEALNYDQCFVRDFVSSALIFLIKGKTDIVRNFLEETLKLQPKDRQLDAYKPGRGLIPASFKVVSDNGEEYLEADFGEHAIARVTPVDSCLWWILLLRAYVVASKDFSLAYQPEFQTGIRLIMEICLANRFDMYPTLLVPDGACMIDRRLGIYGHPLELQVLFYAALRAAREMLICQGNQDVVEAIDNRLPLLCAHIRQHYWIDINRLNAIYRFKSEEYGKAAVNLFNIYVDSIPYYELDKWLPKKGGYLAGNVGPSQLDTRFFALGNLMAIISDLATEEQSQAIMTLIEDRWEDLVGDMPMKICYPALENEEYRIVTGCDPKNIPWSYHNAGSWPVLMWMLAAASVKAGKPYIAGKAIEIAQARLLEDEWPEYYDGKKGRLIGKQARKYQTWTIAGFLLAAELMKNPSLLSLISFDKLPSELVSRACEFEIGSVDASISRLEHHHHHH,soluble
9,MGLQTYNAKRSFDKTPEPKGTKAEKPGSSFVIQKHDARRLHYDFRLEMDGVLKSWAVTRGPSLDPEDKRLAVHVEDHPLSYGDFEGVIPKGQYGGGTVIVWDRGIWQPIGDAGKGYRKGHLEFELEGEKLKGRWHLVRMHGKPGESRENWLLIKGDDLEHHHHHH,not soluble
